Earlier results, collected in PMC2908543, “Uropathogenic Escherichia coli Modulates Immune Responses and Its Curli Fimbriae Interact with the Antimicrobial Peptide LL-37” (PLoS Pathogens, 2010).

Tested on: Pseudomonas aeruginosa
Settings: ref [47]
Description: Biofilm inhibition by antimicrobial polypeptides has previously been described for Pseudomonas aeruginosa. […] A direct interaction with biofilm components was not investigated in these studies. The effect was rather related to an influence of LL-37 on the bacterial gene expression profile or an influence of lactoferrin on free iron. These and our findings stress an important anti-biofilm role of antimicrobial polypeptides in host defense. It is likely that the anti-biofilm activit ...

B1: lactoferrin (protein, UniProt P02788 20-710, looked up)
Lactotransferrin: GRRRSVQWCAVSQPEATKCFQWQRNMRKVRGPPVSCIKRDSPIQCIQAIAENRADAVTLDGGFIYEAGLAPYKLRPVAAEVYGTERQPRTHYYAVAVVKKGGSFQLNELQGLKSCHTGLRRTAGWNVPIGTLRPFLNWTGPPEPIEAAVARFFSASCVPGADKGQFPNLCRLCAGTGENKCAFSSQEPYFSYSGAFKCLRDGAGDVAFIRESTVFEDLSDEAERDEYELLCPDNTRKPVDKFKDCHLARVPSHAVVARSVNGKEDAIWNLLRQAQEKFGKDKSPKFQLFGSPSGQKDLLFKDSAIGFSRVPPRIDSGLYLGSGYFTAIQNLRKSEEEVAARRARVVWCAVGEQELRKCNQWSGLSEGSVTCSSASTTEDCIALVLKGEADAMSLDGGYVYTAGKCGLVPVLAENYKSQQSSDPDPNCVDRPVEGYLAVAVVRRSDTSLTWNSVKGKKSCHTAVDRTAGWNIPMGLLFNQTGSCKFDEYFSQSCAPGSDPRSNLCALCIGDEQGENKCVPNSNERYYGYTGAFRCLAENAGDVAFVKDVTVLQNTDGNNNEAWAKDLKLADFALLCLDGKRKPVTEARSCHLAMAPNHAVVSRMDKVERLKQVLLHQQAKFGRNGSDCPDKFCLFQSETKNLLFNDNTECLARLHGKTTYEKYLGPQYVAGITNLKKCSTSPLLEACEFLRK
notes: antimicrobial polypeptide
- bacterial surface motility mediated by type IV pili: increased bacterial surface motility
